Reference: patent publication US20150184159A1, “USE OF COX-3 BINDING MOLECULES FOR MODULATING AUTOPHAGY” (priority 2013, published 2015)

B1: r44: translationally recoded 44 kD rat COX-3 protein, expressed by transfection in CHO cells (protein)
chain: MGPGFTKALGHGVDLGHIYGDSLERQYHLRLFKDGKLKYQVLDGEVYPPSVEQASVLMRYPPGVPPEKQMAVGQEVFGLLPGLMLFSTIWLREHNRVCDLLKEEHPTWDDEQLFQTTRLILIGETIKIIIEEYVQHLSGYFLQLKFDPELLFRAQFQYRNRIALEFNHLYHWHPLMPDSFQVGSQEYSYEQFLFNTSMLVDYGVEALVDAFSRQRAGRIGGGRNFDYHVLHVAEDVIKESREMRLQSFNEYRKRFGLKPYTSFQEFTGEKEMAAELEELYGDIDALEFYPGLMLEKCQPNSLFGESMIEMGAPFSLKGLLGNPICSPEYWKPSTFGGDVGFNIVNTASLKKLVCLNTKTCPYVSFRVPDYPGDDGSVFVRPSTEL
B2: r57: translationally recoded 57 kD rat COX-3 protein, expressed by transfection in CHO cells (protein)
chain: MRLVITVRSNLIPSPPTYNTAHDYISWESFSNVSYYTRILPSVPKDCPTPMGTKGKKQLPDIHLLAQRLLLRREFIPGPQGTNVLFAFFAQHFTHQFFKTSGKMGPGFTKALGHGVDLGHIYGDSLERQYHLRLFKDGKLKYQVLDGEVYPPSVEQASVLMRYPPGVPPEKQMAVGQEVFGLLPGLMLFSTIWLREHNRVCDLLKEEHPTWDDEQLFQTTRLILIGETIKIIIEEYVQHLSGYFLQLKFDPELLFRAQFQYRNRIALEFNHLYHWHPLMPDSFQVGSQEYSYEQFLFNTSMLVDYGVEALVDAFSRQRAGRIGGGRNFDYHVLHVAEDVIKESREMRLQSFNEYRKRFGLKPYTSFQEFTGEKEMAAELEELYGDIDALEFYPGLMLEKCQPNSLFGESMIEMGAPFSLKGLLGNPICSPEYWKPSTFGGDVGFNIVNTASLKKLVCLNTKTCPYVSFRVPDYPGDDGSVFVRPSTEL

How the values were obtained:
[1] = molecular target: C-terminal RFP labeled ATG9
canine COX-3 = molecular target: T1, canine COX-3 (Canis lupus familiaris, UniProt Q8HZR1); conditions: cited from earlier work
T1 sequence (Q8HZR1 1-633 isoform Q8HZR1-2): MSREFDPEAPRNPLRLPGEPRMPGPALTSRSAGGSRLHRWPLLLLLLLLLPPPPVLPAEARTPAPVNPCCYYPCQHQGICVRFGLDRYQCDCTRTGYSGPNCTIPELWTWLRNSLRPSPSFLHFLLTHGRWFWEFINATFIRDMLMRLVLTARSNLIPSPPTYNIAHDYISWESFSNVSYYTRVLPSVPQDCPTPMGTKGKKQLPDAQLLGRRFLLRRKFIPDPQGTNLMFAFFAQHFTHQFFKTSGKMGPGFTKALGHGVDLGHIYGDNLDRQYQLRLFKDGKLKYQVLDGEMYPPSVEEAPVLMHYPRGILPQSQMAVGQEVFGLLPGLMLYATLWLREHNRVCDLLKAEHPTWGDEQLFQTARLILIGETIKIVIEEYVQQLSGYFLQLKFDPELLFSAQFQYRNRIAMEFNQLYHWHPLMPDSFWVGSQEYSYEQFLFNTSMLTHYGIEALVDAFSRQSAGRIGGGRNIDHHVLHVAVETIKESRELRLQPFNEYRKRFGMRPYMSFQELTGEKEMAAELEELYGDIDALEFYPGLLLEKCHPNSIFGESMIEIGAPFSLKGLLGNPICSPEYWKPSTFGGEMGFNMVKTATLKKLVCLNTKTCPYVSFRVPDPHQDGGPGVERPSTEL

[2] = tested on: encephalomyocarditis virus (EMCV); assay: EMCV replication in transfected CHO cells, plaque-forming assay; assay type: cell-based; conditions: compared to Empty vector
Text: The rCOX constructs being related to ancient unicellular COX and evidence showing their involvement in the formation of innate immune responsive autophagic structures. EMCV is a positive strand RNA picornavirus implicated in human febrile illness. Also, the mTOR small molecule inhibitor rapamycin is shown to stimulate protein synthesis of EMCV proteins (Ref) and that autophagy specifically is shown to promote EMCV viral replication. We infected rCOX or/and cNuc transfected/co-transfected CHO cells with EMCV to determine their influence in viral replication. The media was collected and plaque forming assays were then performed and plaques were counted compared to Empty vector plaque counts.
CHO cells were seeded to the night before infection to complete confluence. Cells were washed twice with DMEM F/12 media before infection. Virus were placed on top of cells and allowed to absorb for 1 hour angling the cells every 10 minutes to ensure cells were fully covered. After adsorption the media was remove and cells washed twice with DMEM F/12 media. Agar at 2% in PBS was melted and mixed with warm DMEM/F12 with 20% FBS and then laid on top of the cells. The virus was allowed to replicate for 36 hours and then 5 mg/mL of MTT in PBS was added to visualize the cells. Plaques were counted using light microscope.

| Molecule | co-localisation by confocal microscopy (Pearson coefficient) (Pearson coefficient) [1] | also measured |
| --- | --- | --- |
| FLAG tagged rc57 (translationally recoded rat COX-3 57 kD protein) (from UniProt Q63921) (enzyme) | 0.973 |  |
| FLAG tagged rc44 (translationally recoded rat COX-3 44 kD protein) (from UniProt Q63921) (enzyme) | 0.928 |  |
| FLAG tagged rc50 (translationally recoded rat COX-3 50 kD protein) (from UniProt Q63921) (enzyme) | 0.954 |  |
| CC(=O)Nc1ccc(O)cc1 [acetaminophen] |  | effect on canine COX-3 (canine COX-3): specifically inhibited |
| B1 |  | number of EMCV virions [2]: doubled |
| B2 |  | inhibition of virion production [2]: 40% |
